Five molecules from publication PMC5305270 can be followed below.

First the molecules themselves.
B1: PAT-3::GFP (wild type), Q27874 Y792A; Y804A (protein)
chain: ASDWKTGEVTGKVVEKSEFPCYSLSRDNYTCSACIQYHESCAWCGAPMFDEKKPYARCDSRAKLMEHGCPNSYIEDPATKLDITEDSKLSDQGQVESEEEAVQIKPQEMYVEIRPKSRVRFNVTYRQAVDYPVDLYYLMDLSYSMKDDKQKLSELGDLLAERMRTVTKNFRLGFGSFIDKKLMPFIDPRIEKQLSPCPTPCAEPYGFKHQMSLTTNTAKFKAEVDKAEISGNLDAPEGGFDAVVQALACNKTIGWRERARKMIVFSTDAGFHFAGDGRLAGVVEPNDGTCHLDREGYYTETLNQDYPSIALLHQMIKDRKANVIFAVTKNNQDLYTQLSNALPDVSSSVGVLANDSRNIVDLIEKEYLKISEKIIMVDNANASEGLKLTYRSMCLDGTTLKDTNVCEGIRVGDEVQFEVTLENTHCIDKRDFVLRIGPSGLDETLIVNVKVLCDCDCERQDRIVTNSADCNGGDMVCGVCRCKGGNVGKYCECNRPGMSTAALNEKCKRTNESAICEGRGVCNCGRCECNPRANPEEQISGEFCECDNFNCPRHDRKICAEHGECNCGKCICAPGWTGRACECPISTDSCLSANGKICNGKGECICGRCRCFDSPDGNRYSGAKCEICPTCPTKCVEYKNCVMCQQWQTGPLNETACDQCEFKVIPVEELPNLNETTPCQFVDPADDCTFYYLYYYDEATDNATVWVRKHKDCPPPVPVLAIVLGVIAGIVILGILLLLLWKLLTVLHDRSEYATFNNERLMAKWDTNENPIAKQATTTFKNPVAAGKAN
B2: PAT-3::GFP (wild type), Q27874 TTT796-798AAA (protein)
chain: ASDWKTGEVTGKVVEKSEFPCYSLSRDNYTCSACIQYHESCAWCGAPMFDEKKPYARCDSRAKLMEHGCPNSYIEDPATKLDITEDSKLSDQGQVESEEEAVQIKPQEMYVEIRPKSRVRFNVTYRQAVDYPVDLYYLMDLSYSMKDDKQKLSELGDLLAERMRTVTKNFRLGFGSFIDKKLMPFIDPRIEKQLSPCPTPCAEPYGFKHQMSLTTNTAKFKAEVDKAEISGNLDAPEGGFDAVVQALACNKTIGWRERARKMIVFSTDAGFHFAGDGRLAGVVEPNDGTCHLDREGYYTETLNQDYPSIALLHQMIKDRKANVIFAVTKNNQDLYTQLSNALPDVSSSVGVLANDSRNIVDLIEKEYLKISEKIIMVDNANASEGLKLTYRSMCLDGTTLKDTNVCEGIRVGDEVQFEVTLENTHCIDKRDFVLRIGPSGLDETLIVNVKVLCDCDCERQDRIVTNSADCNGGDMVCGVCRCKGGNVGKYCECNRPGMSTAALNEKCKRTNESAICEGRGVCNCGRCECNPRANPEEQISGEFCECDNFNCPRHDRKICAEHGECNCGKCICAPGWTGRACECPISTDSCLSANGKICNGKGECICGRCRCFDSPDGNRYSGAKCEICPTCPTKCVEYKNCVMCQQWQTGPLNETACDQCEFKVIPVEELPNLNETTPCQFVDPADDCTFYYLYYYDEATDNATVWVRKHKDCPPPVPVLAIVLGVIAGIVILGILLLLLWKLLTVLHDRSEYATFNNERLMAKWDTNENPIYKQAAAAFKNPVYAGKAN
B3: PAT-3::GFP (wild type), Q27874 Y804A (protein)
chain: ASDWKTGEVTGKVVEKSEFPCYSLSRDNYTCSACIQYHESCAWCGAPMFDEKKPYARCDSRAKLMEHGCPNSYIEDPATKLDITEDSKLSDQGQVESEEEAVQIKPQEMYVEIRPKSRVRFNVTYRQAVDYPVDLYYLMDLSYSMKDDKQKLSELGDLLAERMRTVTKNFRLGFGSFIDKKLMPFIDPRIEKQLSPCPTPCAEPYGFKHQMSLTTNTAKFKAEVDKAEISGNLDAPEGGFDAVVQALACNKTIGWRERARKMIVFSTDAGFHFAGDGRLAGVVEPNDGTCHLDREGYYTETLNQDYPSIALLHQMIKDRKANVIFAVTKNNQDLYTQLSNALPDVSSSVGVLANDSRNIVDLIEKEYLKISEKIIMVDNANASEGLKLTYRSMCLDGTTLKDTNVCEGIRVGDEVQFEVTLENTHCIDKRDFVLRIGPSGLDETLIVNVKVLCDCDCERQDRIVTNSADCNGGDMVCGVCRCKGGNVGKYCECNRPGMSTAALNEKCKRTNESAICEGRGVCNCGRCECNPRANPEEQISGEFCECDNFNCPRHDRKICAEHGECNCGKCICAPGWTGRACECPISTDSCLSANGKICNGKGECICGRCRCFDSPDGNRYSGAKCEICPTCPTKCVEYKNCVMCQQWQTGPLNETACDQCEFKVIPVEELPNLNETTPCQFVDPADDCTFYYLYYYDEATDNATVWVRKHKDCPPPVPVLAIVLGVIAGIVILGILLLLLWKLLTVLHDRSEYATFNNERLMAKWDTNENPIYKQATTTFKNPVAAGKAN
B4: PAT-3::GFP (wild type), Q27874 Y772A (protein)
chain: ASDWKTGEVTGKVVEKSEFPCYSLSRDNYTCSACIQYHESCAWCGAPMFDEKKPYARCDSRAKLMEHGCPNSYIEDPATKLDITEDSKLSDQGQVESEEEAVQIKPQEMYVEIRPKSRVRFNVTYRQAVDYPVDLYYLMDLSYSMKDDKQKLSELGDLLAERMRTVTKNFRLGFGSFIDKKLMPFIDPRIEKQLSPCPTPCAEPYGFKHQMSLTTNTAKFKAEVDKAEISGNLDAPEGGFDAVVQALACNKTIGWRERARKMIVFSTDAGFHFAGDGRLAGVVEPNDGTCHLDREGYYTETLNQDYPSIALLHQMIKDRKANVIFAVTKNNQDLYTQLSNALPDVSSSVGVLANDSRNIVDLIEKEYLKISEKIIMVDNANASEGLKLTYRSMCLDGTTLKDTNVCEGIRVGDEVQFEVTLENTHCIDKRDFVLRIGPSGLDETLIVNVKVLCDCDCERQDRIVTNSADCNGGDMVCGVCRCKGGNVGKYCECNRPGMSTAALNEKCKRTNESAICEGRGVCNCGRCECNPRANPEEQISGEFCECDNFNCPRHDRKICAEHGECNCGKCICAPGWTGRACECPISTDSCLSANGKICNGKGECICGRCRCFDSPDGNRYSGAKCEICPTCPTKCVEYKNCVMCQQWQTGPLNETACDQCEFKVIPVEELPNLNETTPCQFVDPADDCTFYYLYYYDEATDNATVWVRKHKDCPPPVPVLAIVLGVIAGIVILGILLLLLWKLLTVLHDRSEAATFNNERLMAKWDTNENPIYKQATTTFKNPVYAGKAN
B5: PAT-3::GFP (wild type), Q27874 Y792A (protein)
chain: ASDWKTGEVTGKVVEKSEFPCYSLSRDNYTCSACIQYHESCAWCGAPMFDEKKPYARCDSRAKLMEHGCPNSYIEDPATKLDITEDSKLSDQGQVESEEEAVQIKPQEMYVEIRPKSRVRFNVTYRQAVDYPVDLYYLMDLSYSMKDDKQKLSELGDLLAERMRTVTKNFRLGFGSFIDKKLMPFIDPRIEKQLSPCPTPCAEPYGFKHQMSLTTNTAKFKAEVDKAEISGNLDAPEGGFDAVVQALACNKTIGWRERARKMIVFSTDAGFHFAGDGRLAGVVEPNDGTCHLDREGYYTETLNQDYPSIALLHQMIKDRKANVIFAVTKNNQDLYTQLSNALPDVSSSVGVLANDSRNIVDLIEKEYLKISEKIIMVDNANASEGLKLTYRSMCLDGTTLKDTNVCEGIRVGDEVQFEVTLENTHCIDKRDFVLRIGPSGLDETLIVNVKVLCDCDCERQDRIVTNSADCNGGDMVCGVCRCKGGNVGKYCECNRPGMSTAALNEKCKRTNESAICEGRGVCNCGRCECNPRANPEEQISGEFCECDNFNCPRHDRKICAEHGECNCGKCICAPGWTGRACECPISTDSCLSANGKICNGKGECICGRCRCFDSPDGNRYSGAKCEICPTCPTKCVEYKNCVMCQQWQTGPLNETACDQCEFKVIPVEELPNLNETTPCQFVDPADDCTFYYLYYYDEATDNATVWVRKHKDCPPPVPVLAIVLGVIAGIVILGILLLLLWKLLTVLHDRSEYATFNNERLMAKWDTNENPIAKQATTTFKNPVYAGKAN

In the assay the target is T1, GST::DEP-1intra-DA (intracellular domain of C. elegans DEP-1 with the substrate trapping mutation D1241A, GST fusion), G5EGJ9.
T1 chain: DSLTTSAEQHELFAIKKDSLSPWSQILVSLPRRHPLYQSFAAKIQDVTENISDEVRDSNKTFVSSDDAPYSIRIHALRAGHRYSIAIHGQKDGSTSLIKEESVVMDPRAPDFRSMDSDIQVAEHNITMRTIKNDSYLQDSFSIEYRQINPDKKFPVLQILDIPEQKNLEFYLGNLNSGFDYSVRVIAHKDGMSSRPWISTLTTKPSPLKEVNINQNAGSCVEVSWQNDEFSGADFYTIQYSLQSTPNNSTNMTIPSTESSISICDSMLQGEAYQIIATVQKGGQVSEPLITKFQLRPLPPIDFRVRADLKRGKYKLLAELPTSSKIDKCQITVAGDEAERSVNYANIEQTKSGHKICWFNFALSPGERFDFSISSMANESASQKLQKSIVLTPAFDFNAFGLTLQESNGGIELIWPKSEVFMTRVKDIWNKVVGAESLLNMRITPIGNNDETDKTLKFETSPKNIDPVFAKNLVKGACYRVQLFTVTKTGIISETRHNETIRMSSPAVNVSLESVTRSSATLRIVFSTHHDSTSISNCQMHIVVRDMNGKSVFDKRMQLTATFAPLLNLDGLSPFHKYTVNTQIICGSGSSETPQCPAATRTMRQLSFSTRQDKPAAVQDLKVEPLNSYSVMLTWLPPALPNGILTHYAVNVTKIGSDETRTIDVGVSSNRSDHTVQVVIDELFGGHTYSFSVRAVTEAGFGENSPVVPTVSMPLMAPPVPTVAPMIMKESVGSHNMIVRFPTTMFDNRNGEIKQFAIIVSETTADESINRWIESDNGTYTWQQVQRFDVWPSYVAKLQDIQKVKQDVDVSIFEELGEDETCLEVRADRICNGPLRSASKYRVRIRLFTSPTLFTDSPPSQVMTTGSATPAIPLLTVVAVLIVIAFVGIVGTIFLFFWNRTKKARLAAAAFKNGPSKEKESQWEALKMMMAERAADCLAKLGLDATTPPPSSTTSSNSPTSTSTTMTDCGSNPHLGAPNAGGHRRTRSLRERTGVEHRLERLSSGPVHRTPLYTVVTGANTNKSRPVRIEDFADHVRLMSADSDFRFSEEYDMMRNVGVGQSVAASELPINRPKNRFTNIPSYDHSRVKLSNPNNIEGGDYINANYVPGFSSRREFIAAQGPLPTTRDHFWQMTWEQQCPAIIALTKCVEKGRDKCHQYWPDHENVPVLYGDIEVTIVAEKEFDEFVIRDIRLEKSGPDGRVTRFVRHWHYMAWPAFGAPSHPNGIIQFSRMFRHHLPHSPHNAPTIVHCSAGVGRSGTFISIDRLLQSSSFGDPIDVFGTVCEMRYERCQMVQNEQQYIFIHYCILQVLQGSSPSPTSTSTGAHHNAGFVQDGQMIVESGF
The assay can be described thus: GST pull-down, anti-GFP Western blot, densitometry. As to conditions: chain shown with the change; three independent experiments; band intensities normalized to input; parent: est. 100; read off a plot.
Take B1: the percent of parent was determined as 13%.

B2: the percent of parent was 13%.

Consider B3, for which the percent of parent is 92%.

With B4, the percent of parent is 37%.

With B5, the percent of parent is 10%.
